Data from publication PMC4137731, “C-Terminal Domain Swapping of SSB Changes the Size of the ssDNA Binding Site”.

B1: dT45 (ssDNA)
DNA: TTTTTTTTTTTTTTTTTTTTTTTTTTTTTTTTTTTTTTTTTTTTT
B2: dT40 (ssDNA)
DNA: TTTTTTTTTTTTTTTTTTTTTTTTTTTTTTTTTTTTTTTT
B3: dT55 (ssDNA)
DNA: TTTTTTTTTTTTTTTTTTTTTTTTTTTTTTTTTTTTTTTTTTTTTTTTTTTTTTT
B4: dT15 (ssDNA)
DNA: TTTTTTTTTTTTTTT
B5: dT25 (ssDNA)
DNA: TTTTTTTTTTTTTTTTTTTTTTTTT
B6: dT60 (ssDNA)
DNA: TTTTTTTTTTTTTTTTTTTTTTTTTTTTTTTTTTTTTTTTTTTTTTTTTTTTTTTTTTTT
B7: dT20 (ssDNA)
DNA: TTTTTTTTTTTTTTTTTTTT

Experiments:
Conditions in all cases: protein: recombinant; tags: none (untagged); chain copies: 4; label: 5' 32P
KpSSBnStSSBc [1] = target: T1, KpSSBnStSSBc (Klebsiella pneumoniae subsp. pneumoniae …, UniProt A6TGW7 1-91+P0A2F6:92-176, internal_change); experiment: EMSA; monomer conc.; 2 complexes; 20 mM Tris-HCl pH 8.0, 100 mM NaCl, 25°C 30 min, 1.7 nM DNA, protein 0-5000 nM; native 8% PAGE in TBE at 4°C
KpSSBnPaSSBc [2] = target: T2, KpSSBnPaSSBc (Klebsiella pneumoniae subsp. pneumoniae …, UniProt A6TGW7 1-91+P40947:91-165, internal_change); experiment: EMSA; monomer conc.; 1 complex; 20 mM Tris-HCl pH 8.0, 100 mM NaCl, 25°C 30 min, 1.7 nM DNA, protein 0-5000 nM; native 8% PAGE in TBE at 4°C
KpSSBnStSSBc [3] = target: T1, KpSSBnStSSBc; experiment: as above
KpSSBnPaSSBc [4] = target: T2, KpSSBnPaSSBc; experiment: EMSA; monomer conc.; 2 complexes; 20 mM Tris-HCl pH 8.0, 100 mM NaCl, 25°C 30 min, 1.7 nM DNA, protein 0-5000 nM; native 8% PAGE in TBE at 4°C
KpSSBnPaSSBc [5] = target: T2, KpSSBnPaSSBc; experiment: EMSA; no complex observed up to 5000 nM; 20 mM Tris-HCl pH 8.0, 100 mM NaCl, 25°C 30 min, 1.7 nM DNA, protein 0-5000 nM; native 8% PAGE in TBE at 4°C

Row | Binder | apparent K (half saturation) (KpSSBnPaSSBc [2]) [nM] | apparent K (half saturation) (KpSSBnStSSBc [3]) [nM] | further results
1 | B1 |  |  | apparent K (half saturation) (KpSSBnStSSBc [1]): 160 ± 20 nM
2 | B2 | 220 ± 30 | 120 ± 20 | 
3 | B3 | 230 ± 30 |  | 
4 | B4 |  | 260 ± 60 | 
5 | B5 | 390 ± 60 |  | 
6 | B6 |  |  | apparent K (half saturation) (KpSSBnPaSSBc [4]): 230 ± 30 nM
7 | B7 |  | 110 ± 20 | binding result (KpSSBnPaSSBc [5]): no binding
